Assay results taken from patent publication US20260258117A1 (ACADEMISCH ZIEKENHUIS LEIDEN H O D N LUMC, published 2026).

Legend:
[1] = target: T1, Complement Factor H protein (human, UniProt P08603 19-1231); test: bispecific ELISA
T1 construct: Plasma protein, bought purified or present in normal human serum; also called FH; CFH
Description: BsAbs were tested for binding to both antigens in a bispecific ELISA. MaxiSorp plates (Thermo Scientific, Nunc, 430341) were coated with 50 μL/well BSA-DNP (10 μg/mL, Biosearch Technologies, D-5050-10, conjugation ration 13) in coating buffer (0.1 M Na₂CO₃/NaHCO₃PH 9.6) for 1 hour at 37° C. After every incubation, plates were washed three times with PBS/0.05% Tween 20. Plates were blocked with 100 μL/well PBS/1% BSA for 1 hour at 37° C. After washing, plates were incubated with 50 μL/well (bs) Abs diluted in PBS/0.05% Tween 20/1% BSA (PTB buffer) for 1 hour at 37° C. Next, 1 μg/mL FH (CompTech, A137) or C4BP (CompTech, A109) diluted in PTB buffer was added. FH was detected using goat anti-human FH (Quidel, A312) and HRP-labeled rabbit anti-goat Ig (Dako, P0449), and C4BP was detected using rabbit anti-human C4BP (kind gift from Anna M. Blom, Malmö, Sweden) and HRP-labeled goat anti-rabbit Ig (Dako, P0448), all diluted in PTB buffer. Plates were developed by incubating with 50 μL/well ABTS (Merck, A1888-5G) containing 1:2000 diluted H₂O₂ (Merck, 1072090250), and read at 415 nm using a microplate reader (BIO-RAD iMark). It was confirmed by ELISA that the bsAbs can bind to a specific target (e.g., DNP as a model antigen) as well as FH or C4BP, whereas the parental monospecific antibodies cannot (FIG. 1A).

C4b-binding protein = target: T2, C4b-binding protein (human, UniProt P04003 49-597; P20851 18-252); test: bispecific ELISA and complement activation assay on biotinylated BSA-DNP, C4BP detected
T2 construct: also called C4BP
T2 sequence (looked up) 1: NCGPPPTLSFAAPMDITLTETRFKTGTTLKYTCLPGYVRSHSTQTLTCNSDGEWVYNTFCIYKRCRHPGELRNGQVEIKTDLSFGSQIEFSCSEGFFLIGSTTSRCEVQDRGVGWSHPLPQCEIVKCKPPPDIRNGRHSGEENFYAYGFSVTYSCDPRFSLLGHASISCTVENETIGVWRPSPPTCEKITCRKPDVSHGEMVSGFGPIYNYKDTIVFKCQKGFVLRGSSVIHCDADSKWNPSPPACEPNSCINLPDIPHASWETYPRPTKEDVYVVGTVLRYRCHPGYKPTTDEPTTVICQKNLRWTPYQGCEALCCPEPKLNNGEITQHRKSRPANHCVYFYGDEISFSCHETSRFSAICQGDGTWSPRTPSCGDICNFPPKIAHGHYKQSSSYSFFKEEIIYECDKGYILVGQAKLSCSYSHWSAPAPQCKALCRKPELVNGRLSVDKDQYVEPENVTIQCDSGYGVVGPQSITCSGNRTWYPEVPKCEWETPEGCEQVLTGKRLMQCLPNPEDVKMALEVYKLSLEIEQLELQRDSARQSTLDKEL
T2 sequence (looked up) 2: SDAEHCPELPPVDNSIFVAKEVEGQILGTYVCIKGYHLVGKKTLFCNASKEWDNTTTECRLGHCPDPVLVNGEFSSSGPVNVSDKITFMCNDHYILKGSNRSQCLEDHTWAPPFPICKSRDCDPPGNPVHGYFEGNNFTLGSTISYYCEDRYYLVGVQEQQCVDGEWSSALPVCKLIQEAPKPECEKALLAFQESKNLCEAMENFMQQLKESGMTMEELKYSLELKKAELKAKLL

[2] = target: T1, Complement Factor H protein; test: flow cytometry, FH detected on Ramos cells treated with bsAb and normal human serum
Description: Ramos cells (originally from ATCC) were plated at 100,000 cells/well (V-bottom microplate, Greiner Bio-One, 651101). Cells were incubated with 100 μL/well samples containing 0.3 μg/mL anti-CD20 wild-type with or without 20 μg/mL bsAbs (anti-FH x anti-HLA I and controls) with or without 10 μg/mL FH for 30 minutes. After every incubation, cells were washed with 150 μL/well PBS/1% FCS. Cells were incubated with 100 μL/well 10% NHS in RPMI (for FH detection in the presence of 50 μg/mL eculizumab) for 45 minutes at 37° C. Cell viability was measured by adding 100 μL/well 7-AAD (BD Pharmingen, 559925) 1:200 diluted in PBS/1% FCS. FH was detected using mouse anti-human FH (1:100, OX-23, generated in-house) and goat anti-mouse IgG AF488 (1:50, Life Technologies, A11001). Cells were measured using a FACSCanto flow cytometer (BD Biosciences).

T1 sequence (P08603 19-1231 limits assumed): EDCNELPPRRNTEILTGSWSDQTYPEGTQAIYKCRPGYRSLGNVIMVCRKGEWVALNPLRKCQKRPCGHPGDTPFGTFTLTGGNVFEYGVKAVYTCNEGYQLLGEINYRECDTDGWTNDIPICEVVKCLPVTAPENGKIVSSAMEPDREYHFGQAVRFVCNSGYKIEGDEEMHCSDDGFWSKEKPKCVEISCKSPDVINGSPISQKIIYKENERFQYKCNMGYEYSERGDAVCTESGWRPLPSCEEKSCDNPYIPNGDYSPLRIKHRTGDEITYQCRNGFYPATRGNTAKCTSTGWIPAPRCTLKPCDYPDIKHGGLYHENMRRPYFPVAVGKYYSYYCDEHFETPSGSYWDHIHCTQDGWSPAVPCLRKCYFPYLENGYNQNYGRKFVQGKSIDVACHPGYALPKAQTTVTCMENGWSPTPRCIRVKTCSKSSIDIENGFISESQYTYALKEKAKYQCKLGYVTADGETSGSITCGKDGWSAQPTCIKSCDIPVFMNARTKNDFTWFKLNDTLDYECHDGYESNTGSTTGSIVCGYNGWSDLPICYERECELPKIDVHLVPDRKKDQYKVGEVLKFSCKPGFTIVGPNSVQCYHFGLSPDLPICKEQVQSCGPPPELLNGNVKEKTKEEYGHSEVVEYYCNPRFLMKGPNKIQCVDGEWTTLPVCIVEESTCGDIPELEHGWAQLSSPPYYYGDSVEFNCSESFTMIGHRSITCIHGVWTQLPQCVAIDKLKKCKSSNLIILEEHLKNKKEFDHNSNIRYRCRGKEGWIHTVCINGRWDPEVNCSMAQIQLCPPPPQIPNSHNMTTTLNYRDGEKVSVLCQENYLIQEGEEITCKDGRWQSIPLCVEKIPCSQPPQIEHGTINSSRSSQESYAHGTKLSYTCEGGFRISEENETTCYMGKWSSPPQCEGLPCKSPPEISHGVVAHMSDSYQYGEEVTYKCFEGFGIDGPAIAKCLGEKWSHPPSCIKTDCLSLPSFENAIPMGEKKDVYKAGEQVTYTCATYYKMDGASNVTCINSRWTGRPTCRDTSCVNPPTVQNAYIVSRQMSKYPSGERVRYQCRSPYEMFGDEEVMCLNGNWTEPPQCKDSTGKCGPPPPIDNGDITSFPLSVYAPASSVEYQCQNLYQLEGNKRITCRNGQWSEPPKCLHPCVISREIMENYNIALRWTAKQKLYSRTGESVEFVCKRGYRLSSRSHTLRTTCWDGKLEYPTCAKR

B1: Anti-FH F405L LALAPG, Anti-DNP K409R LALAPG (bispecific antibody, human IgG1, kappa, L234A L235A)
heavy 1: EVQLQQSGPELVKPGASVKISCKASGYSFTGYFIHWVKQSHVKSLEWFGRINPYNGATDYNQNFKDKAILTIDESSSTAYMEIHSLTSDDSAVYYCARGLFLDYWGQGTTLTVSSASTKGPSVFPLAPSSKSTSGGTAALGCLVKDYFPEPVTVSWNSGALTSGVHTFPAVLQSSGLYSLSSVVTVPSSSLGTQTYICNVNHKPSNTKVDKRVEPKSCDKTHTCPPCPAPEAAGGPSVFLFPPKPKDTLMISRTPEVTCVVVDVSHEDPEVKFNWYVDGVEVHNAKTKPREEQYNSTYRVVSVLTVLHQDWLNGKEYKCKVSNKALGAPIEKTISKAKGQPREPQVYTLPPSREEMTKNQVSLTCLVKGFYPSDIAVEWESNGQPENNYKTTPPVLDSDGSFLLYSKLTVDKSRWQQGNVFSCSVMHEALHNHYTQKSLSLSPGK
light 1: DILMTQSPSSMSVSLGDTVSITCHASQGITSNIGWLQQKPGKSFKGLIYHGTNLEDGVPSRFSGSGSGADYSLTISSLESEDFADYYCVQYAQFPWTFGGGTKLEIKRTVAAPSVFIFPPSDEQLKSGTASVVCLLNNFYPREAKVQWKVDNALQSGNSQESVTEQDSKDSTYSLSSTLTLSKADYEKHKVYACEVTHQGLSSPVTKSFNRGEC
heavy 2: DVRLQESGPGLVKPSQSLSLTCSVTGYSITNSYYWNWIRQFPGNKLEWMVYIGYDGSNNYNPSLKNRISITRDTSKNQFFLKLNSVTTEDTATYYCARATYYGNYRGFAYWGQGTLVTVSAASTKGPSVFPLAPSSKSTSGGTAALGCLVKDYFPEPVTVSWNSGALTSGVHTFPAVLQSSGLYSLSSVVTVPSSSLGTQTYICNVNHKPSNTKVDKRVEPKSCDKTHTCPPCPAPEAAGGPSVFLFPPKPKDTLMISRTPEVTCVVVDVSHEDPEVKFNWYVDGVEVHNAKTKPREEQYNSTYRVVSVLTVLHQDWLNGKEYKCKVSNKALGAPIEKTISKAKGQPREPQVYTLPPSREEMTKNQVSLTCLVKGFYPSDIAVEWESNGQPENNYKTTPPVLDSDGSFFLYSRLTVDKSRWQQGNVFSCSVMHEALHNHYTQKSLSLSPGK
light 2: DIRMTQTTSSLSASLGDRVTISCRASQDISNYLNWYQQKPDGTVKLLIYYTSRLHSGVPSRFSGSGSGTDYSLTISNLEQEDIATYFCQQGNTLPWTFGGGTKLEIKRTVAAPSVFIFPPSDEQLKSGTASVVCLLNNFYPREAKVQWKVDNALQSGNSQESVTEQDSKDSTYSLSSTLTLSKADYEKHKVYACEVTHQGLSSPVTKSFNRGEC
notes: Made by controlled Fab-arm exchange of the two parental IgG1 kappa antibodies; also called anti-FH x anti-DNP
**Q.** Does B1 bind [1]?
**A.** Result: binds

B2: Anti-C4BP F405L LALAPG, Anti-biotin K409R LALAPG (bispecific antibody, human IgG1, kappa, L234A L235A)
heavy 1: EVQLVESGGGLVKPGGSLKLSCAVSGFIFSDYYMYWVRQTPEKRLEWVATISDGGVYTYYPDSMKGRFTISRDNAKNNLYLQMSSLKSEDTAMYYCVRGDYYGNSLDYWGQGTSVTVSSASTKGPSVFPLAPSSKSTSGGTAALGCLVKDYFPEPVTVSWNSGALTSGVHTFPAVLQSSGLYSLSSVVTVPSSSLGTQTYICNVNHKPSNTKVDKRVEPKSCDKTHTCPPCPAPEAAGGPSVFLFPPKPKDTLMISRTPEVTCVVVDVSHEDPEVKFNWYVDGVEVHNAKTKPREEQYNSTYRVVSVLTVLHQDWLNGKEYKCKVSNKALGAPIEKTISKAKGQPREPQVYTLPPSREEMTKNQVSLTCLVKGFYPSDIAVEWESNGQPENNYKTTPPVLDSDGSFLLYSKLTVDKSRWQQGNVFSCSVMHEALHNHYTQKSLSLSPGK
light 1: DVVMTQTPLTLSITIGQPASISCKSSQSLLDGDGKTYLNWLLQRPGQSPKRLIYLVSKLDSGVPDRFTGSGSGTDFTLKISRVEAEDLGVYYCCQGTHFPWTFGRGTKLEIKRTVAAPSVFIFPPSDEQLKSGTASVVCLLNNFYPREAKVQWKVDNALQSGNSQESVTEQDSKDSTYSLSSTLTLSKADYEKHKVYACEVTHQGLSSPVTKSFNRGEC
heavy 2: QVKLQESGPGLVAPSQSLSITCTVSGFSLTAYGVDWVRQPPGKGLEWLGVIWGGGRTNYNSGLMSRLSIRKDNSKSQVFLTMNSLQTDDTAKYYCVKHTNWDGGFAYWGQGTTVTVSSASTKGPSVFPLAPSSKSTSGGTAALGCLVKDYFPEPVTVSWNSGALTSGVHTFPAVLQSSGLYSLSSVVTVPSSSLGTQTYICNVNHKPSNTKVDKRVEPKSCDKTHTCPPCPAPEAAGGPSVFLFPPKPKDTLMISRTPEVTCVVVDVSHEDPEVKFNWYVDGVEVHNAKTKPREEQYNSTYRVVSVLTVLHQDWLNGKEYKCKVSNKALGAPIEKTISKAKGQPREPQVYTLPPSREEMTKNQVSLTCLVKGFYPSDIAVEWESNGQPENNYKTTPPVLDSDGSFFLYSRLTVDKSRWQQGNVFSCSVMHEALHNHYTQKSLSLSPGK
light 2: DVVMTQSPLSLPVSLGDQASISCRSGQGLVYSNGDTYLHWYLQKPGQSPKLLIYKVSNRFSGVPDRFSGSGSGTDFTLKISRVEAEDLGVYFCSQSTHFPFTFGSGTKLEIKRTVAAPSVFIFPPSDEQLKSGTASVVCLLNNFYPREAKVQWKVDNALQSGNSQESVTEQDSKDSTYSLSSTLTLSKADYEKHKVYACEVTHQGLSSPVTKSFNRGEC
notes: Made by controlled Fab-arm exchange; also called anti-C4BP x anti-biotin
**Q.** Does B2 bind (C4b-binding protein)?
**A.** Result: binds

B3: Anti-FH F405L LALAPG, Anti-HLA I K409R LALAPG (bispecific antibody, human IgG1, kappa, L234A L235A)
heavy 1: EVQLQQSGPELVKPGASVKISCKASGYSFTGYFIHWVKQSHVKSLEWFGRINPYNGATDYNQNFKDKAILTIDESSSTAYMEIHSLTSDDSAVYYCARGLFLDYWGQGTTLTVSSASTKGPSVFPLAPSSKSTSGGTAALGCLVKDYFPEPVTVSWNSGALTSGVHTFPAVLQSSGLYSLSSVVTVPSSSLGTQTYICNVNHKPSNTKVDKRVEPKSCDKTHTCPPCPAPEAAGGPSVFLFPPKPKDTLMISRTPEVTCVVVDVSHEDPEVKFNWYVDGVEVHNAKTKPREEQYNSTYRVVSVLTVLHQDWLNGKEYKCKVSNKALGAPIEKTISKAKGQPREPQVYTLPPSREEMTKNQVSLTCLVKGFYPSDIAVEWESNGQPENNYKTTPPVLDSDGSFLLYSKLTVDKSRWQQGNVFSCSVMHEALHNHYTQKSLSLSPGK
light 1: DILMTQSPSSMSVSLGDTVSITCHASQGITSNIGWLQQKPGKSFKGLIYHGTNLEDGVPSRFSGSGSGADYSLTISSLESEDFADYYCVQYAQFPWTFGGGTKLEIKRTVAAPSVFIFPPSDEQLKSGTASVVCLLNNFYPREAKVQWKVDNALQSGNSQESVTEQDSKDSTYSLSSTLTLSKADYEKHKVYACEVTHQGLSSPVTKSFNRGEC
heavy 2: QVQLKQSGPGLVQPSQSLSLTCTVSGFSLTSYGVHWVRQPPGKGLEWLGVIWSGGSTDYNAAFISRLSIRKDNSKSQVFFKMNSLQADDTAIYYCARTFTTSTSAWFAYWGQGTLVTVSAASTKGPSVFPLAPSSKSTSGGTAALGCLVKDYFPEPVTVSWNSGALTSGVHTFPAVLQSSGLYSLSSVVTVPSSSLGTQTYICNVNHKPSNTKVDKRVEPKSCDKTHTCPPCPAPEAAGGPSVFLFPPKPKDTLMISRTPEVTCVVVDVSHEDPEVKFNWYVDGVEVHNAKTKPREEQYNSTYRVVSVLTVLHQDWLNGKEYKCKVSNKALGAPIEKTISKAKGQPREPQVYTLPPSREEMTKNQVSLTCLVKGFYPSDIAVEWESNGQPENNYKTTPPVLDSDGSFFLYSRLTVDKSRWQQGNVFSCSVMHEALHNHYTQKSLSLSPGK
light 2: SIVMTQTPKFLLVSAGDRVTITCKASQSVSNDVAWYQQKPGQSPKLLIYYASNRYTGVPDRFTGSGYGTDFTFTISTVQAEDLAVYFCQQDYSSPPWTFGGGTKLEIRRTVAAPSVFIFPPSDEQLKSGTASVVCLLNNFYPREAKVQWKVDNALQSGNSQESVTEQDSKDSTYSLSSTLTLSKADYEKHKVYACEVTHQGLSSPVTKSFNRGEC
notes: Made by controlled Fab-arm exchange; also called anti-FH x anti-HLA I
**Q.** Does B3 bind [2]?
**A.** Result: binds
